From US20260355338 (published 2026)

How the values were obtained:
[1] = molecular target: T1, human EpCAM-mFc (human); test: ELISA
T1 chain: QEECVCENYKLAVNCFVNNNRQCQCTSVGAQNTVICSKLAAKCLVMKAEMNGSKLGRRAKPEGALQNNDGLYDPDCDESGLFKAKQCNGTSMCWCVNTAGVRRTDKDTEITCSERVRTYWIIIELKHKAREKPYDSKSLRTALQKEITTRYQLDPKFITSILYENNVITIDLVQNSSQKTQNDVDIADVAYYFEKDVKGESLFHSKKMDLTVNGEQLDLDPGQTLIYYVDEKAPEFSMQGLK

[2] = molecular target: T2, EpCAM on HSC2 cells (human, UniProt P16422); test: FACS, HSC2 cells, apparent, low end of range
T2 chain: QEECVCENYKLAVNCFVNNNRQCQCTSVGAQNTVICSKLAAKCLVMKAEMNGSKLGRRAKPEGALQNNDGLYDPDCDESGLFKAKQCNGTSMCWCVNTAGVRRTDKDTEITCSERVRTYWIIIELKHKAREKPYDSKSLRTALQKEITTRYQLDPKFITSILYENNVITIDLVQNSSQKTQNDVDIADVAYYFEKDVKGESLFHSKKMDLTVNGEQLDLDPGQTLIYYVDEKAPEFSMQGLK

[3] = molecular target: T2, EpCAM on HSC2 cells; test: FACS, HSC2 cells, apparent, high end of range

Binder	Kd [1] [nM]	Kd [2] [nM]	Kd [3] [nM]
EP04-3014 (1361-H) (antibody) chain 1: QVQLVQSGAEVKKPGASVKVSCKASGYTFTNYHIHWVRQAPGQRLEYIGWIYPGNVYIQYNEKFKGRATLTADKSASTAYMELSSLRSEDTAVYYCARDGPWFAYWGQGTLVTVSS chain 2: QGQSGQGWCPRLFDRPSMGCPTGGGSSGGAVGLLAPPGGLSGRSDNIGGSDIVLTQTPLSLSVTPGQPASISCRSSRSLLHSDGFTYLYWFLQKPGQSPQLLIYQTSNLASGVPDRFSSSGSGTDFTLKISRVEAEDVGVYYCAQNLELPNTFGQGTKLEIK	1.9		
EP07-3014 (1565-Y) (antibody) chain 1: QVQLVQSGAEVKKPGASVKVSCKASGYTFTNYYIHWVRQAPGQRLEYIGWIYPGNVYIQYNEKFKGRATLTADKSASTAYMELSSLRSEDTAVYYCARDGYWFAYWGQGTLVTVSS chain 2: QGQSGQGHSGCPRLFDRCSAPAGGGSSGGAVGLLAPPGGLSGRSDNIGGSDIVLTQTPLSLSVTPGQPASISCRSSRSLLHSDGFTYLYWFLQKPGQSPQLLIYQTSNLASGVPDRFSSSGSGTDFTLKISRVEAEDVGVYYCAQNLELPNTFGQGTKLEIK	37.6		
EP107-3014 (1361-H) (antibody) chain 1: QVQLVQSGAEVKKPGASVKVSCKASGYTFTNYHIHWVRQAPGQRLEYIGWIYPGNVYIQYNEKFKGRATLTADKSASTAYMELSSLRSEDTAVYYCARDGPWFAYWGQGTLVTVSS chain 2: QGQSGQGSKPCSYMHPYCFYNSGGGSSGGAVGLLAPPGGLSGRSDNIGGSDIVLTQTPLSLSVTPGQPASISCRSSRSLLHSDGFTYLYWFLQKPGQSPQLLIYQTSNLASGVPDRFSSSGSGTDFTLKISRVEAEDVGVYYCAQNLELPNTFGQGTKLEIK	147		
muEpCAM23 (antibody, V domains shown) VH: EVKLEESGPALVKPGASVRISCKASGYTFTNYYIHWVKQRPGQGLDYIGWIYPGNVYIQYNEKFKGKATLTADKSSSTAFMQLSSLTSEDSAVYFCARDGPWFAYWGQGTLVTVSS VL: DIVLTQTPFSNPVTLGTSASISCRSSKSLLHSDGFTYLYWFLQKPGQSPHLLIYQTSNLASGVPDRFSSSGSGTDFTLRISRVEAEDVGVYYCAQNLELPNTFGGGTKLEIK		0.38	0.79
